Data from US20240141027A1 (BIOARCTIC, published 2024).

B1: mAb158-scLc-8D3-Ig.1 (bispecific antibody, human IgG1, kappa)
heavy: not shown
chain: DIVMTQAPLSLPVSLGDQASISCRSSQSIVHSNGNTYLEWYLQKPGQSPKLLIYKVSNRFSGVPDRFSGSGSGTDFTLKISRVEAEDLGIYYCFQGSHVPPTFGGGTKLEIKRADAAPTVSIFPPSSEQLTSGGASVVCFLNNFYPKDINVKWKIDGSERQNGVLNSWTDQDSKDSTYSMSSTLTLTKDEYERHNSYTCEATHKTSTSPIVKSFNRNECGGGGSGGGGSGGGGSEVQLVESGGGLVQPGNSLTLSCVASGFTFSNYGMHWIRQAPKKGLEWIAMIYYDSSKMNYADTVKGRFTISRDNSKNTLYLEMNSLRSEDTAMYYCAVPTSHYVVDVWGQGVSVTVSSGGGGSGGGGSGGGGSDIQMTQSPASLSASLEEIVTITCQASQDIGNWLAWYQQKPGKSPQLLIYGATSLADGVPSRFSGSRSGTQFSLKISRVQVEDIGIYYCLQAYNTPWTFGGGTKLELKRGGSSGSGSGSTGTSSSGTGTSAGTTGTSASTSGSGSDIVMTQAPLSLPVSLGDQASISCRSSQSIVHSNGNTYLEWYLQKPGQSPKLLIYKVSNRFSGVPDRFSGSGSGTDFTLKISRVEAEDLGIYYCFQGSHVPPTFGGGTKLEIKRADAAPTVSIFPPSSEQLTSGGASVVCFLNNFYPKDINVKWKIDGSERQNGVLNSWTDQDSKDSTYSMSSTLTLTKDEYERHNSYTCEATHKTSTSPIVKSFNRNEC
B2: mAb158-scLc-8D3-Ig.15 (bispecific antibody, human IgG1, kappa)
heavy: not shown
chain: DIVMTQAPLSLPVSLGDQASISCRSSQSIVHSNGNTYLEWYLQKPGQSPKLLIYKVSNRFSGVPDRFSGSGSGTDFTLKISRVEAEDLGIYYCFQGSHVPPTFGGGTKLEIKRADAAPTVSIFPPSSEQLTSGGASVVCFLNNFYPKDINVKWKIDGSERQNGVLNSWTDQDSKDSTYSMSSTLTLTKDEYERHNSYTCEATHKTSTSPIVKSFNRNECGGGGSGGGGSGGGGSGGGGSGGGGSDIQMTQSPASLSASLEEIVTITCQASQDIGNWLAWYQQKPGKSPQLLIYGATSLADGVPSRFSGSRSGTQFSLKISRVQVEDIGIYYCLQAYNTPWTFGGGTKLELKRGGGGSGGGGSGGGGSEVQLVESGGGLVQPGNSLTLSCVASGFTFSNYGMHWIRQAPKKGLEWIAMIYYDSSKMNYADTVKGRFTISRDNSKNTLYLEMNSLRSEDTAMYYCAVPTSHYVVDVWGQGVSVTVSSGGGGSGGGGSGGGGSGGGGSDIVMTQAPLSLPVSLGDQASISCRSSQSIVHSNGNTYLEWYLQKPGQSPKLLIYKVSNRFSGVPDRFSGSGSGTDFTLKISRVEAEDLGIYYCFQGSHVPPTFGGGTKLEIKRADAAPTVSIFPPSSEQLTSGGASVVCFLNNFYPKDINVKWKIDGSERQNGVLNSWTDQDSKDSTYSMSSTLTLTKDEYERHNSYTCEATHKTSTSPIVKSFNRNEC
notes: Format [LC-L1-scBM-L2-LC]; also called mAb158-scLc-Ig.15
B3: mAb158-scLc-8D3-Ig.4 (bispecific antibody, human IgG1, kappa)
heavy: not shown
chain: DIVMTQAPLSLPVSLGDQASISCRSSQSIVHSNGNTYLEWYLQKPGQSPKLLIYKVSNRFSGVPDRFSGSGSGTDFTLKISRVEAEDLGIYYCFQGSHVPPTFGGGTKLEIKRADAAPTVSIFPPSSEQLTSGGASVVCFLNNFYPKDINVKWKIDGSERQNGVLNSWTDQDSKDSTYSMSSTLTLTKDEYERHNSYTCEATHKTSTSPIVKSFNRNECGGGGSGGGGSGGGGSGGGGSGGGGSGGGGSDIVMTQAPLSLPVSLGDQASISCRSSQSIVHSNGNTYLEWYLQKPGQSPKLLIYKVSNRFSGVPDRFSGSGSGTDFTLKISRVEAEDLGIYYCFQGSHVPPTFGGGTKLEIKRADAAPTVSIFPPSSEQLTSGGASVVCFLNNFYPKDINVKWKIDGSERQNGVLNSWTDQDSKDSTYSMSSTLTLTKDEYERHNSYTCEATHKTSTSPIVKSFNRNECGGGGSGGGGSGGGGSEVQLVESGGGLVQPGNSLTLSCVASGFTFSNYGMHWIRQAPKKGLEWIAMIYYDSSKMNYADTVKGRFTISRDNSKNTLYLEMNSLRSEDTAMYYCAVPTSHYVVDVWGQGVSVTVSSGGGGSGGGGSGGGGSDIQMTQSPASLSASLEEIVTITCQASQDIGNWLAWYQQKPGKSPQLLIYGATSLADGVPSRFSGSRSGTQFSLKISRVQVEDIGIYYCLQAYNTPWTFGGGTKLELKR
notes: Format [LC-L1-LC-L2-scBM]
B4: mAb158-scLc-8D3-Ig.5 (bispecific antibody, human IgG1, kappa)
heavy: not shown
chain: DIVMTQAPLSLPVSLGDQASISCRSSQSIVHSNGNTYLEWYLQKPGQSPKLLIYKVSNRFSGVPDRFSGSGSGTDFTLKISRVEAEDLGIYYCFQGSHVPPTFGGGTKLEIKRADAAPTVSIFPPSSEQLTSGGASVVCFLNNFYPKDINVKWKIDGSERQNGVLNSWTDQDSKDSTYSMSSTLTLTKDEYERHNSYTCEATHKTSTSPIVKSFNRNECGGGGSGGGGSGGGGSGGGGSGGGGSGGGGSGGGGSGGGGSGGGGSGGGGSDIVMTQAPLSLPVSLGDQASISCRSSQSIVHSNGNTYLEWYLQKPGQSPKLLIYKVSNRFSGVPDRFSGSGSGTDFTLKISRVEAEDLGIYYCFQGSHVPPTFGGGTKLEIKRADAAPTVSIFPPSSEQLTSGGASVVCFLNNFYPKDINVKWKIDGSERQNGVLNSWTDQDSKDSTYSMSSTLTLTKDEYERHNSYTCEATHKTSTSPIVKSFNRNECGGGGSGGGGSGGGGSEVQLVESGGGLVQPGNSLTLSCVASGFTFSNYGMHWIRQAPKKGLEWIAMIYYDSSKMNYADTVKGRFTISRDNSKNTLYLEMNSLRSEDTAMYYCAVPTSHYVVDVWGQGVSVTVSSGGGGSGGGGSGGGGSDIQMTQSPASLSASLEEIVTITCQASQDIGNWLAWYQQKPGKSPQLLIYGATSLADGVPSRFSGSRSGTQFSLKISRVQVEDIGIYYCLQAYNTPWTFGGGTKLELKR
notes: Format [LC-L1-LC-L2-scBM]
B5: mAb158-scLc-Ig.6 (antibody, human IgG1, kappa)
heavy: not shown
chain: DIVMTQAPLSLPVSLGDQASISCRSSQSIVHSNGNTYLEWYLQKPGQSPKLLIYKVSNRFSGVPDRFSGSGSGTDFTLKISRVEAEDLGIYYCFQGSHVPPTFGGGTKLEIKRADAAPTVSIFPPSSEQLTSGGASVVCFLNNFYPKDINVKWKIDGSERQNGVLNSWTDQDSKDSTYSMSSTLTLTKDEYERHNSYTCEATHKTSTSPIVKSFNRNECGGGGSGGGGSGGGGSGGGGSGGGGSGGGGSGGGGSGGGGSGGGGSGGGGSDIVMTQAPLSLPVSLGDQASISCRSSQSIVHSNGNTYLEWYLQKPGQSPKLLIYKVSNRFSGVPDRFSGSGSGTDFTLKISRVEAEDLGIYYCFQGSHVPPTFGGGTKLEIKRADAAPTVSIFPPSSEQLTSGGASVVCFLNNFYPKDINVKWKIDGSERQNGVLNSWTDQDSKDSTYSMSSTLTLTKDEYERHNSYTCEATHKTSTSPIVKSFNRNEC
B6: mAb158 IgG (antibody, V domains shown)
VH: EVKLMESGGGLVQPGGSRKLSCAASGFTFSSFGMHWVRQAPEKGLEWVAYISSGSSTIYYGDTVKGRFTISRDNPKNTLFLQMTSLRSEDTAMYYCAREGGYYYGRSYYTMDYWGQGTSVTVSS
VL: DIVMTQAPLSLPVSLGDQASISCRSSQSIVHSNGNTYLEWYLQKPGQSPKLLIYKVSNRFSGVPDRFSGSGSGTDFTLKISRVEAEDLGIYYCFQGSHVPPTFGGGTKLEIKR
notes: also called unmodified mAb158 IgG control; unmodified mAb158 control

What was measured:
[1] = biological target: T1, mTfR1 expressed on cell surfaces of Immortalized Mouse Cerebral Capillary Endothelial Cells (cEND) (mouse, UniProt Q62351 1-763); experiment: flow cytometry on cEND cells, 100 nM, 4° C., anti-mouse IgG-PE
T1 construct: whole, on cells; also called mTfR1 on cEND cells
Protocol: Binding and uptake mediated by TfR1 was measured on Immortalized Mouse Cerebral Capillary Endothelial Cells (cEND) (ABM, #T0290).
The pellet was resuspended in PBS and 200,000 cells per well were seeded in U-bottom 96-well Corning plates for flow cytometry staining. Cells were then washed with PBS and incubated with 100 nM of one of the mAb158-8D3 constructs mAb158-scLc-8D3-Ig.1, mAb158-scLc-8D3-Ig.2 and mAb158-scLc-8D3-Ig.3, control 8D3 IgG (light chain of SEQ ID NO:17, heavy chain of SEQ ID NO:19) or murine IgG control for 45 min at 4° C. After primary incubation, cells were washed twice with ice cold PBS, and mAb158-8D3 constructs were captured using a fluorescently labeled secondary anti-mouse IgG-PE antibody (BD Biosciences, 550589). After incubation, cells were washed twice with PBS and resuspended in 200 μl PBS. Cells were acquired in a BD FACSLyric flow cytometer system (BD Biosciences) and samples were analyzed using FCS Express software (De Novo Software).

[2] = biological target: T2, recombinant murine transferrin receptor 1 (mTfR1), extracellular domain fused to a His-tag (murine, UniProt Q62351 89-763); experiment: indirect ELISA, plates coated with recombinant mTfR1
T2 construct: Position of the His-tag (N or C) unknown; also called recombinant mTfR1; murine TfR1; not shown: His-tag
Protocol: Binding of selected expressed constructs to mTfR1 was assessed by indirect ELISA (FIG. 4). In brief, half area 96-well plates (Corning, #3690) were coated with 1 μg/ml recombinant mTfR1, produced as described in Example 4, in PBS overnight at 4° C. The coated plates were blocked using Pierce protein-free blocking solution (Thermo Fisher Scientific, #37572) for 1 h at room temperature with shaking and washed four times in PBS containing 0.1% TWEEN-20. Serial dilutions (1:3) of expressed constructs in incubation buffer (1% BSA, 0.1% TWEEN-20 in PBS) were incubated for 1 h at room temperature. Following the four wash steps, bound test constructs were detected by addition of anti-mouse-IgG F(ab′)2-HRP antibody (Jackson Immuno Research, #115-035-006) at 1:1250 dilution in incubation buffer (1 h, room temperature). Following four wash steps, K-Blue® Aqueous TMB substrate (Neogen, #331177) was added to the wells for 15 min at room temperature before the reaction was stopped with 1:1 dilution of 0.5 M H₂SO₄. The optical density at 450 nm was recorded (Spark, Tecan) and background signal was subtracted before analysis.

[3] = biological target: T2, recombinant murine transferrin receptor …; experiment: BLI (Octet), mTfR1 captured on holo-transferrin sensors, analyte 50 nM
recombinant Aβ1-42 = biological target: T3, recombinant Aβ1-42; experiment: indirect ELISA, plates coated with recombinant Aβ1-42
T3 construct: Coated at 0.5 µg/ml on ELISA plates; also called Amyloid Beta (Aβ1-42)

[4] = biological target: T2, recombinant murine transferrin receptor …; experiment: BLI (Octet), mTfR1 captured on biotinylated human holo-transferrin on streptavidin sensors
Protocol: Binding of expressed constructs to mTfR1 was assessed by Bio-Layer Interferometry (Octet RED384, ForteBio). High-precision streptavidin sensors were loaded in two consecutive steps: first with 20 μg/ml of biotinylated human holo-transferrin (Sigma) during 180 s and then with 20 μg/ml recombinant mTfR1, produced as described in Example 4, during 180 s. Thereafter, association of the samples to the loaded sensors was measured for 120 s, followed by dissociation for 300 s. Binding was analyzed with samples diluted to 17.5 μg/ml for mAb158-scLc-8D3-Ig.1 and mAb158-scLc-8D3-Ig.2, to 18 μg/ml for mAb158-scLc-8D3-Ig.3 and to 4.9 μg/ml for 8D3 Fab (corresponding to 100 nM of respective binding molecule). The response from a buffer sample was subtracted. All samples were diluted in 1× Kinetics buffer (ForteBio). The same buffer was used for baseline and dissociation steps. […] As controls, the 8D3 Fab and the antibody mAb158 IgG were included.

T2 sequence (Q62351 89-763): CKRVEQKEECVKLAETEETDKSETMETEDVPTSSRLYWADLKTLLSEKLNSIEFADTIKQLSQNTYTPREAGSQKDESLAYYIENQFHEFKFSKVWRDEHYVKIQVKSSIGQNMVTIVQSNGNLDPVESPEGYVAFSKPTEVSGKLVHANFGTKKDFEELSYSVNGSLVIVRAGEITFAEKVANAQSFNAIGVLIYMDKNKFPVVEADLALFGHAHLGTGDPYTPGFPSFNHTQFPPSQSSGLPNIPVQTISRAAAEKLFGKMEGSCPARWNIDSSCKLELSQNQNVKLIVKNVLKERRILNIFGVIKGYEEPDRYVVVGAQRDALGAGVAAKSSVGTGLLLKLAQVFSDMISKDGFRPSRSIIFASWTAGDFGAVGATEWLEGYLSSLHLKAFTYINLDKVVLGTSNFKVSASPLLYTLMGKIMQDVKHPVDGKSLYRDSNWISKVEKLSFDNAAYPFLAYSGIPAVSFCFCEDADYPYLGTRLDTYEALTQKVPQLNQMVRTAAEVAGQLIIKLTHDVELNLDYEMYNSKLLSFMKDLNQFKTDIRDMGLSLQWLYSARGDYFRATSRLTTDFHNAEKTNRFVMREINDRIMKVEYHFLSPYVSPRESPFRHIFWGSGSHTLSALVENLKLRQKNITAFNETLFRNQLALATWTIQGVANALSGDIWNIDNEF
T1 sequence (Q62351 whole entry): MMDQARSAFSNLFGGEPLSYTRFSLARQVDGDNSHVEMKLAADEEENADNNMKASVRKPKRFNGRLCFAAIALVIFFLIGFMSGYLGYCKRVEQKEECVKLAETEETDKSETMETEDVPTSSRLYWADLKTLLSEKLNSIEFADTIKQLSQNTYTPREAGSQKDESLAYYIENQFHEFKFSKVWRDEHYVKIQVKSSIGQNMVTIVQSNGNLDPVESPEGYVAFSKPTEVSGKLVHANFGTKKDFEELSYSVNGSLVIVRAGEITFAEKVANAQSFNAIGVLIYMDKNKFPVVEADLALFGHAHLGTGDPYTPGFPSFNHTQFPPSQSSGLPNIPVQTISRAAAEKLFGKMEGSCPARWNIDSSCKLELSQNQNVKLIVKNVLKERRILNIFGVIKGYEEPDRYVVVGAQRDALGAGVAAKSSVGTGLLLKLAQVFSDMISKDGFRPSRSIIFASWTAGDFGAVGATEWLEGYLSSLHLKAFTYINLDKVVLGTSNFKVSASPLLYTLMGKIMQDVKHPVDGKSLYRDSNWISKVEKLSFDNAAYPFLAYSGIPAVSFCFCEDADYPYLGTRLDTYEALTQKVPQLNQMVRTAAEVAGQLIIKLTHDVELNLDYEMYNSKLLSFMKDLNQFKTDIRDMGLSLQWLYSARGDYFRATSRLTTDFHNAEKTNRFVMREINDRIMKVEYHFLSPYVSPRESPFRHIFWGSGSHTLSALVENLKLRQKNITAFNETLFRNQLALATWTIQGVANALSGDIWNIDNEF
T3 sequence (peptide, as listed by the source): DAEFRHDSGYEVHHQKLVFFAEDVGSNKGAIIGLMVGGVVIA

| Binder | binding result [4] | also measured |
| --- | --- | --- |
| B1 | – | binding result [1]: binds; binding result [2]: binds |
| B2 | – | binding result [3]: binds; binding result (recombinant Aβ1-42): binds |
| B3 | binds | – |
| B4 | binds | – |
| B5 | no binding | – |
| B6 | no binding (tested: 50 nM) | – |
